Measurements taken from article PMC5827731.

Key:
[1] = target: NPM1^mutB2 (Lys and Arg to Ala in the B2-tract) (UniProt P06748)
[2] = target: SURF6-N (N-terminal segment of Surfeit locus protein 6, residues 1-182) (UniProt O75683)
Chain of UniProt O75683 (O75683 1-182): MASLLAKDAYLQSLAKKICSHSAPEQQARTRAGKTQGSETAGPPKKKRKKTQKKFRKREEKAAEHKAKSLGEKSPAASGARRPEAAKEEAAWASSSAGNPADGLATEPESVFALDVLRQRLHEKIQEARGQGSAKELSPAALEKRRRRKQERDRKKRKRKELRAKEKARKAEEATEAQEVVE

Substance | threshold SURF6-N concentration for heterotypic LLPS, NPM1 construct at 20 µM (turbidity) [1] [µM] | threshold concentration for heterotypic LLPS with SURF6-N (turbidity, Fig. 2c) [2] [µM]
NPM1^mutB2 (Lys and Arg to Ala in the B2-tract) (from UniProt P06748 1-294) (natural protein) | 60 | –
NPM1^N188 (NPM1 truncation that lacks the CTD plus the B2-tract) (domain or fragment) | – | 30
